Test results taken from article PMC7404038, “Chaperone-Like Activity of HSPB5: The Effects of Quaternary Structure Dynamics and Crowding” (International Journal of Molecular Sciences, 2020).

T1: Ca2+-depleted α-lactalbumin (UniProt P00711 20-142)
T1 sequence (looked up): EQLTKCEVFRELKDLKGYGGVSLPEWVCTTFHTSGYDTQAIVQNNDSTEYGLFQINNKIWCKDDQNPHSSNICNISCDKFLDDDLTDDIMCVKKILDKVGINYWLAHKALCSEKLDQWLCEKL

B1: Human full-length untagged HSPB5 (αB-crystallin) (natural protein, UniProt P02511 1-175, looked up)
chain: MDIAIHHPWIRRPFFPFHSPSRLFDQFFGEHLLESDLFPTSTSLSPFYLRPPSFLRAPSWFDTGLSEMRLEKDRFSVNLDVKHFSPEELKVKVLGDVIEVHGKHEERQDEHGFISREFHRKYRIPADVDPLTITSSLSSDGVLTVNGPRKQVSGPERTIPITREEKPAVTAAPKK
notes: αB-crystallin (HSPB5), human, full length, untagged; subunit mass 20.2 kDa as printed; Polydisperse oligomer whose size depends on concentration, temperature and crowding; the preparation was a gift of N. Sluchanko; also called the chaperone; source: expressed and purified as described earlier [104]
B2: glycogen phosphorylase b from rabbit skeletal muscles (enzyme, UniProt P00489 1-843, looked up)
chain: MSRPLSDQEKRKQISVRGLAGVENVTELKKNFNRHLHFTLVKDRNVATPRDYYFALAHTVRDHLVGRWIRTQQHYYEKDPKRIYYLSLEFYMGRTLQNTMVNLALENACDEATYQLGLDMEELEEIEEDAGLGNGGLGRLAACFLDSMATLGLAAYGYGIRYEFGIFNQKICGGWQMEEADDWLRYGNPWEKARPEFTLPVHFYGRVEHTSQGAKWVDTQVVLAMPYDTPVPGYRNNVVNTMRLWSAKAPNDFNLKDFNVGGYIQAVLDRNLAENISRVLYPNDNFFEGKELRLKQEYFVVAATLQDIIRRFKSSKFGCRDPVRTNFDAFPDKVAIQLNDTHPSLAIPELMRVLVDLERLDWDKAWEVTVKTCAYTNHTVLPEALERWPVHLLETLLPRHLQIIYEINQRFLNRVAAAFPGDVDRLRRMSLVEEGAVKRINMAHLCIAGSHAVNGVARIHSEILKKTIFKDFYELEPHKFQNKTNGITPRRWLVLCNPGLAEIIAERIGEEYISDLDQLRKLLSYVDDEAFIRDVAKVKQENKLKFAAYLEREYKVHINPNSLFDVQVKRIHEYKRQLLNCLHVITLYNRIKKEPNKFVVPRTVMIGGKAAPGYHMAKMIIKLITAIGDVVNHDPVVGDRLRVIFLENYRVSLAEKVIPAADLSEQISTAGTEASGTGNMKFMLNGALTIGTMDGANVEMAEEAGEENFFIFGMRVEDVDRLDQRGYNAQEYYDRIPELRQIIEQLSSGFFSPKQPDLFKDIVNMLMHHDRFKVFADYEEYVKCQERVSALYKNPREWTRMVIRNIATSGKFSSDRTIAQYAREIWGVEPSRQRLPAPDEKIP
notes: glycogen phosphorylase, muscle form, b form, rabbit; subunit 97.4 kDa as printed; In the assays partially unfolded by heating at 48 °C; also called Phb; muscle glycogen phosphorylase b

Key:
[1] = target: T1, Ca2+-depleted α-lactalbumin; assay: cell-based or functional assay
[2] = target: B2; assay: cell-based or functional assay
[3] = target: the molecule itself; assay: AUC; sedimentation velocity, Phb 0.4 mg/mL, HSPB5 0.26 mg/mL and their mixture, Hepes buffer with PEG 20 kDa 25 mg/mL and PVP 25 kDa 12.5 mg/mL (mixed crowding), 48 °C, 48,000 rpm
[4] = target: the molecule itself; assay: AUC; sedimentation velocity, Phb 0.5 mg/mL with HSPB5 0, 0.025 or 0.075 mg/mL, 30 mM Hepes, pH 6.8, 0.1 M NaCl, 0.2 mM EDTA, 48 °C, 48,000 rpm; masses by the Svedberg equation with diffusion coefficients from DLS

| Binder | initial stoichiometry S0 of the HSPB5-αLa complexes from suppression of DTT-induced aggregation of αLa at 37 °C (DLS; (Kagg/Kagg,0)^1/b versus [HSPB5]/[αLa]) [1] | stoichiometry S0 of the chaperone-target protein complex from suppression of thermal aggregation of Phb at 48 °C (DLS; Kagg/Kagg,0 = 1 − x/S0) [2] | binding result [3] | stoichiometry N [4] |
| --- | --- | --- | --- | --- |
| B1 | 0.011 HSPB5 subunits per αLa molecule (molar ratio) | 0.31 HSPB5 subunits per Phb monomer (molar ratio) | binds |  |
| B2 |  |  |  | 2 |
